Assay results reported in patent US20210015937A1 (CRESCENDO BIOLOGICS, published 2021).

T1: human LAG-3 expressed on cells (human, UniProt P18627 23-525)
T1 sequence: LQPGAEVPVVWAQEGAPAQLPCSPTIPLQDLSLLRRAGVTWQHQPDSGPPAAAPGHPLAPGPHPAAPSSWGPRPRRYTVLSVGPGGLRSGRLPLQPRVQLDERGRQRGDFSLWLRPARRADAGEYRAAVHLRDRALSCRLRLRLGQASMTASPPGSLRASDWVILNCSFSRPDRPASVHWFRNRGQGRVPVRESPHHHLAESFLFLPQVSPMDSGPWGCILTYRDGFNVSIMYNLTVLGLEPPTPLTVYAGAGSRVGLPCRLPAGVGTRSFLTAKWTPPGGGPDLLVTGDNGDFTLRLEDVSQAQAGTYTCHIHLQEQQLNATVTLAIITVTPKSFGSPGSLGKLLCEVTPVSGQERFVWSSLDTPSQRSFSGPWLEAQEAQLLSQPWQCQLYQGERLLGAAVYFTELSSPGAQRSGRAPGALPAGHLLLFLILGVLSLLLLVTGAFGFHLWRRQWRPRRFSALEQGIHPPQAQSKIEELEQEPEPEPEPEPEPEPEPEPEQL

T2: recombinant human LAG-3-Fc (human, UniProt P18627 23-450)
T2 construct: also called human LAG-3 (R&D Systems cat no. 2319-L3); LAG3 antigen
T2 sequence: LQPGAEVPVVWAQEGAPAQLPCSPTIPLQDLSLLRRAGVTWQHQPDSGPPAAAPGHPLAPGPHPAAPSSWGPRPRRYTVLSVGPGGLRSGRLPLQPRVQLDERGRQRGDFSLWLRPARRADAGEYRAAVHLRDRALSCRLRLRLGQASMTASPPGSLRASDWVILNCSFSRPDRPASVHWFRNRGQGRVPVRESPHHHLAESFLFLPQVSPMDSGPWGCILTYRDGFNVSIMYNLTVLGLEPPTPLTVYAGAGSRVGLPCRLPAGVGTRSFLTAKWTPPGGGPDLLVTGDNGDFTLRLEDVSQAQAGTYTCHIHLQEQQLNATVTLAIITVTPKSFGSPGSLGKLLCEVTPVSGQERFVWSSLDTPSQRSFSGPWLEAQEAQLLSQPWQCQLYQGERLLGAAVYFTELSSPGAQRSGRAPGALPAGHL


Tests used:
[1] = molecular target: T3, human PD-1 expressed on cells (human, UniProt Q15116 25-288); assay: cell-based or functional assay
T3 sequence (Q15116 25-288 limits assumed): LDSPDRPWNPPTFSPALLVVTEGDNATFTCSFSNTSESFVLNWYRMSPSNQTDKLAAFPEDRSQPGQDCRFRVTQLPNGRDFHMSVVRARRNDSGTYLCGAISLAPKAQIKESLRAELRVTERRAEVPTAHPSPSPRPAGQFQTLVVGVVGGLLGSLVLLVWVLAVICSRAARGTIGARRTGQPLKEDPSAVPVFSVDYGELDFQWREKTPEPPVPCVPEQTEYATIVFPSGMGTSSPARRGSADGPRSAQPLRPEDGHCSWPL

[2] = molecular target: T3, human PD-1 expressed on cells; assay: cell-based or functional assay; remark: listed apart in the source
[3] = molecular target: T1, human LAG-3 expressed on cells; assay: cell-based or functional assay
[4] = molecular target: T4, Rhesus monkey LAG-3 (used as cynomolgus LAG-3) (Rhesus monkey (called cynomolgus in the …)); assay: BLI (Octet); cynomolgus LAG-3 immobilised on ARG2 sensors, 1:1 fit
T4 construct: extracellular domain
Experimental: (§1) Binding kinetics for multi-valent and bispecific VH were also measured in real-time bio-layer interferometer based biosensor Octet (ForteBio). […] All the binding studies were performed in HBS-ET Octet kinetics buffer. Biosensors were washed in Octet kinetics buffer in between different steps. […] The contact time for each of the association steps was 150 seconds and the dissociation step was 400 seconds. […] To compare the constructs, kinetic association (kₐ) and dissociation (kd) rate constants were determined by processing and fitting the data to a 1:1 binding model using ForteBio Analysis software.

[5] = molecular target: T2, recombinant human LAG-3-Fc; assay: BLI (Octet); human LAG-3-Fc captured on protein G biosensors, 1:1 fit
Experimental: as §1

[6] = molecular target: T2, recombinant human LAG-3-Fc; assay: BLI (Octet); human LAG-3-Fc amine-coupled to biosensor, VH in solution, 1:1 fit
Experimental: Binding kinetics were measured in real-time bio-layer interferometer based biosensor Octet (ForteBio). […] All the binding studies were performed in HBS-ET Octet kinetics buffer. Biosensors were washed in Octet kinetics buffer in between different steps. A seven point, two-fold dilution series of each Humabody® VH was made with a top concentration of 1.6 μM. The contact time for each of the association steps was 150 seconds and the dissociation step was 300-400 seconds. Kinetic association (kₐ) and dissociation (kd) rate constants were determined by processing and fitting the data to a 1:1 binding model using ForteBio Analysis software.

Kd [6]	koff [6]	kon [6]	Binder	also measured
31.3 nM	0.00343 s⁻¹	110000 M⁻¹ s⁻¹	variant 6 of VH 1.1 (VHH, 4) VHH: EVQLVESGGGVVRPGGSLRLSCAASGFTFDDFGMSWVRQAPGKGLEWVSGIHWNSDITAYADSVKGRFTISRDNAKNSLYLQMNSLRAEDTALYYCARIPREDCSSASCYTDAIDFWGPGTMVTVSS	
35.5 nM	0.000847 s⁻¹	23900 M⁻¹ s⁻¹	variant 7 of VH 1.1 (VHH, 4) VHH: EVQLVESGGGVVRPGGSLRLSCAASGFTFDDFGMSWVRQAPGKGLEWVSGIHWNGGNTGYADSVKGRFTISRDNAKNSLYLQMNSLRAEDTALYYCARIPREDCSVAACYTDAIDFWGPGTMVTVSS	
34.5 nM	0.000899 s⁻¹	26100 M⁻¹ s⁻¹	variant 3 of VH 1.1 (VHH, 4) VHH: EVQLVESGGGVVRPGGSLRLSCAASGFTFDDYGMSWVRQAPGKGLEWVSGIHWNGGSTGYADSVKGRFTISRDNAKNSLYLQMNSLRAEDTALYYCARIPREDCSSASCYTDAIDFWGPGTMVTVSS	
13 nM	0.00126 s⁻¹	96700 M⁻¹ s⁻¹	variant 8 of VH 1.1 (VHH, 4) VHH: EVQLVESGGGVVRPGGSLRLSCAASGFTFNDYGMSWVRQAPGKGLEWVSGIHWNGGNSGYADSVKGRFTISRDNAKNSLYLQMNSLRAEDTALYYCARIPREDCSSTSCYTDAIDFWGPGTMVTVSS	
53.2 nM	0.00383 s⁻¹	72100 M⁻¹ s⁻¹	variant 9 of VH 1.1 (VHH, 4) VHH: EVQLVESGGGVVRPGGSLRLSCAASGFTFDDYGMSWVRQAPGKGLEWVSGIHWNGDSTGYADSVKGRFTISRDNAKNSLYLQMNSLRAEDTALYHCARIPREDCSSASCYTDAIDFWGPGTMVTVSS	
35.5 nM	0.000912 s⁻¹	27000 M⁻¹ s⁻¹	variant 1 of VH 1.1 (VHH) VHH: EVQLVESGGGVVRPGGSLRLSCAASGFTFDDYGMSWVRQAPGKGLEWVSGIHWNGGNSGYADSVKGRFTISRDNAKNSLYLQMNSLRAEDTALYYCARIPREDCSSASCYTDAIDFWGPGTMVTVSS	
7.9 nM	0.000517 s⁻¹	65500 M⁻¹ s⁻¹	variant 5 of VH 1.1 (VHH, 4) VHH: EVQLVESGGGVVRPGGSLRLSCAASGFTFNDFGMSWVRQAPGKGLEWVSGIHWNGGNTGYADSVKGRFTISRDNAKNSLYLQMNSLRAEDTALYYCARIPREDCSSASCYTDAIDFWGPGTMVTVSS	
8.41 nM	0.000479 s⁻¹	56900 M⁻¹ s⁻¹	variant 4 of VH 1.1 (VHH, 4) VHH: EVQLVESGGGVVRPGGSLRLSCAASGFTFDDYGMSWVRQAPGKGLEWVSGIHWIGGNSGYADSVKGRFTISRDNAKNSLYLQMNSLRAEDTALYYCARIPREDCSSASCYTDAIDFWGPGTMVTVSS	

More lines, now with the values behind:

Binder	Kd [6]	koff [6]	kon [6]	also measured
2.77-6GS-1.1-6GS-1.1 (bispecific antibody) EVQLVESGGGLVKPGGSLRLSCAASGFTFSDSSMTWMRQAPGKGLEWVSYISSGGGVKFYTDSVKGRFTISRDNAKNSLYLQMNSLRAEDTAVYYCAREAPLRLGESPHDAFDISGQGTMVTVSSGGGGSGGGGSGGGGSGGGGSGGGGSGGGGSEVQLVESGGGVVRPGGSLRLSCSASGFTFDDYGMSWVRQAPGKGLEWVSGIHWNGGNSGYADSVKGRFTISRDNAKNSLYLQMNSLRAEDTALYYCARIPREDCSSASCYTDAIDFWGPGTMVTVSSGGGGSGGGGSGGGGSGGGGSGGGGSGGGGSEVQLVESGGGVVRPGGSLRLSCSASGFTFDDYGMSWVRQAPGKGLEWVSGIHWNGGNSGYADSVKGRFTISRDNAKNSLYLQMNSLRAEDTALYYCARIPREDCSSASCYTDAIDFWGPGTMVTVSSAAAHHHHHH				potency in the PD-1:PD-L1 NFAT-luciferase reporter assay, fold lower than monoclonal antibodies [1]: > 30 fold; EC50 (M), NFAT-Luciferase Reporter Gene assay (PD-1:PD-L1) [2]: 3.7e-08 M; EC50 (M), NFAT-Luciferase Reporter Gene assay (LAG-3:MHCII) [3]: 6.6e-09 M
VH1.1-8GS-VH1.1-His6 (VHH) EVQLVESGGGVVRPGGSLRLSCSASGFTFDDYGMSWVRQAPGKGLEWVSGIHWNGGNSGYADSVKGRFTISRDNAKNSLYLQMNSLRAEDTALYYCARIPREDCSSASCYTDAIDFWGPGTMVTVSSGGGGSGGGGSGGGGSGGGGSGGGGSGGGGSGGGGSGGGGSEVQLVESGGGVVRPGGSLRLSCSASGFTFDDYGMSWVRQAPGKGLEWVSGIHWNGGNSGYADSVKGRFTISRDNAKNSLYLQMNSLRAEDTALYYCARIPREDCSSASCYTDAIDFWGPGTMVTVSSAAAHHHHHH				EC50 (M), NFAT-Luciferase Reporter Gene assay (LAG-3:MHCII) [3]: 5.4e-09 M
VH1.1-4GS-VH1.1-His6 (VHH) EVQLVESGGGVVRPGGSLRLSCSASGFTFDDYGMSWVRQAPGKGLEWVSGIHWNGGNSGYADSVKGRFTISRDNAKNSLYLQMNSLRAEDTALYYCARIPREDCSSASCYTDAIDFWGPGTMVTVSSGGGGSGGGGSGGGGSGGGGSEVQLVESGGGVVRPGGSLRLSCSASGFTFDDYGMSWVRQAPGKGLEWVSGIHWNGGNSGYADSVKGRFTISRDNAKNSLYLQMNSLRAEDTALYYCARIPREDCSSASCYTDAIDFWGPGTMVTVSSAAAHHHHHH				EC50 (M), NFAT-Luciferase Reporter Gene assay (LAG-3:MHCII) [3]: 1.4e-09 M
VH1.1-12GS-VH1.1-His6 (VHH) EVQLVESGGGVVRPGGSLRLSCSASGFTFDDYGMSWVRQAPGKGLEWVSGIHWNGGNSGYADSVKGRFTISRDNAKNSLYLQMNSLRAEDTALYYCARIPREDCSSASCYTDAIDFWGPGTMVTVSSGGGGSGGGGSGGGGSGGGGSGGGGSGGGGSGGGGSGGGGSGGGGSGGGGSGGGGSGGGGSEVQLVESGGGVVRPGGSLRLSCSASGFTFDDYGMSWVRQAPGKGLEWVSGIHWNGGNSGYADSVKGRFTISRDNAKNSLYLQMNSLRAEDTALYYCARIPREDCSSASCYTDAIDFWGPGTMVTVSSAAAHHHHHH				EC50 (M), NFAT-Luciferase Reporter Gene assay (LAG-3:MHCII) [3]: 3.3e-09 M
VH 1.2-6GS-VH 1.2 (VHH, It is built here from its name, the (Gly4Ser)n linker definition and the statement that the constructs used carried C-terminal AAA-His6; also called 1.2-6GS-1.2; LAG3 bivalent) EVQLVESGGGVVRPGGSLRLSCAASGFTFDDYGMSWVRQAPGKGLEWVSGIHWNGGSTGYADSVKGRFTISRDNAKNSLYLQMNSLRAEDTALYYCARIPREDCSSASCYTDAIDFWGQGTMVTVSSGGGGSGGGGSGGGGSGGGGSGGGGSGGGGSEVQLVESGGGVVRPGGSLRLSCAASGFTFDDYGMSWVRQAPGKGLEWVSGIHWNGGSTGYADSVKGRFTISRDNAKNSLYLQMNSLRAEDTALYYCARIPREDCSSASCYTDAIDFWGQGTMVTVSSAAAHHHHHH				Kd [4]: 0.536 nM; koff [4]: 0.000148 s⁻¹; kon [4]: 276000 M⁻¹ s⁻¹; Kd [5]: 0.744 nM; koff [5]: 0.00112 s⁻¹; kon [5]: 1.5e+06 M⁻¹ s⁻¹
VH 2.77 (VHH) VHH: EVQLVESGGGLVKPGGSLRLSCAASGFTFSDSSMTWMRQAPGKGLEWVSYISSGGGVKFYTDSVKGRFTISRDNAKNSLYLQMNSLRAEDTAVYYCAREAPLRLGESPHDAFDISGQGTMVTVSS				EC50 (M), NFAT-Luciferase Reporter Gene assay (PD-1:PD-L1) [2]: 9.7e-09 M
VH 1.2 (VHH, Human VH single domain antibody against LAG-3; It is VH 1.1 with S23A, P119Q, N57S and S58T; also called variant 2) VHH: EVQLVESGGGVVRPGGSLRLSCAASGFTFDDYGMSWVRQAPGKGLEWVSGIHWNGGSTGYADSVKGRFTISRDNAKNSLYLQMNSLRAEDTALYYCARIPREDCSSASCYTDAIDFWGQGTMVTVSS	72.1 nM	0.00179 s⁻¹	24800 M⁻¹ s⁻¹	
